Measured values: patent US20170342169A1 (published 2017)
Each block holds one binder with its values, some of them ahead of it.

How the values were obtained:
[1] = target: T1, MSLN (Table 10-1; species and form not stated); assay: antigen binding, method not stated
T1 construct: also called mesothelin

[2] = target: cynomolgus 4-1BB (cynomolgus); assay: SPR
[3] = target: T2, human CD40 on cells (HEK293 transfectants, HEK-Blue CD40 reporter cells, human B cells, moDC, PBMC) (human, UniProt P25942 21-277); assay: cell-based or functional assay
[4] = target: CD40 (binding assays of Example 4; species and form not stated) (UniProt P25942 21-193, limits assumed); assay: antigen binding, method not stated
[5] = target: T2, human CD40 on cells (HEK293 …); assay: cell-based or functional assay; remark: listed apart in the source

Sequence of CD40 (binding assays of Example 4; species and form not stated) (P25942 21-193 limits assumed): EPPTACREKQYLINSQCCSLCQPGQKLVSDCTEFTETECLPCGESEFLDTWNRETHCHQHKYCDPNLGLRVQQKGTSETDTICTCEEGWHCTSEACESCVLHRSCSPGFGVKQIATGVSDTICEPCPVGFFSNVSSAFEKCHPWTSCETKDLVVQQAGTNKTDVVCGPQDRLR
T2 sequence (P25942 21-277 limits assumed): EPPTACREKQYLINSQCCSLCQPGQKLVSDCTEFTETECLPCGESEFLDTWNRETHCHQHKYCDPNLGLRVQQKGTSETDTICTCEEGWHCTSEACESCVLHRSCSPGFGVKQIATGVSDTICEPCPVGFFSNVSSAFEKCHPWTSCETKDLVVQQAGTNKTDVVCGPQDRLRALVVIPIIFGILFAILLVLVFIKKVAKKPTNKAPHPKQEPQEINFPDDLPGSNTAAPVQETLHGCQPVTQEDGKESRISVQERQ
T1 sequence (Q13421 37-606): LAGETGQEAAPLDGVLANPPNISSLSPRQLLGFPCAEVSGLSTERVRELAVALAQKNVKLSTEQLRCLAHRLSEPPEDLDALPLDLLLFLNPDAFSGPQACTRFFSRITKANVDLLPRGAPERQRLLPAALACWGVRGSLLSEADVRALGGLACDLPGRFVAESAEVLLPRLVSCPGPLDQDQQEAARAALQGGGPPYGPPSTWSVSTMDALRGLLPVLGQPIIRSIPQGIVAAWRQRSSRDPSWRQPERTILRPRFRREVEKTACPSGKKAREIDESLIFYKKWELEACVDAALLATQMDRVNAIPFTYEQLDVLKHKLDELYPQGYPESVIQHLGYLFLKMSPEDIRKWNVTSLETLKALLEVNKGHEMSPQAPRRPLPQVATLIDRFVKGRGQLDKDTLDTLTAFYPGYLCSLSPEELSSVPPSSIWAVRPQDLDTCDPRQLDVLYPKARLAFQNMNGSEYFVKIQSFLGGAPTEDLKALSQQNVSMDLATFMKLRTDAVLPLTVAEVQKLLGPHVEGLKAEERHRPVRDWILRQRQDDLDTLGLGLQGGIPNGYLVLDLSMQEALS

EC50 [1]: 0.06 µg/mL
B1: anti-MSLN antibody (MOR06626 mIgG1) (antibody, V domains shown)
VH: QVQLVQSGAEVKKPGASVKVSCKASGYTFTGNYINWVRQAPGQGLEWMGIINPTKGWTLYAQKFQGRVTMTRDTSISTAYMELSSLRSEDTAVYYCARWHHGTWIFDYWGQGTLVTVSS
VL: DIVLTQPPSVSGAPGQRVTISCSGSSSNIGSNYVSWYQQLPGTAPKLLIYNDNQRPSGVPDRFSGSKSGTSASLAITGLQSEDEADYYCSTYDRRTFSVFGGGTKLTVLG

Kd [2]: 18 nM
koff [2]: 0.022 s⁻¹
kon [2]: 1.2e+06 M⁻¹ s⁻¹
B2: TABBY106-rIgG1 (antibody, V domains shown)
VH: QVQLQQSGAELAKPGTSVKLSCKASGYTFTSYYIYWVKQRPGQGLEWIGNIWPGNGGTFYGEKFMGKATFTADTSSSTAYMLLGSLTPEDSAYYFCARRPDYSGDDYFDYWGQGVLVTVSS
VL: QVVLTQPKSVSTSLKSTVKLSCKLNSGNIGSYYVHWYQQHAGRSPTTMIYRDDKRPDGVPDRFSGSIDSSSNSAFLTINNVQTEDDAIYFCHSYDSTITPVFGGGTKLTVL
notes: Rat IgG1, lambda

Kd [2]: 0.36 nM
koff [2]: 0.00013 s⁻¹
kon [2]: 350000 M⁻¹ s⁻¹
B3: TABBY107-rIgG1 (antibody, V domains shown)
VH: QVKLVQSGAALVKPGASVKMSCKASDYTFNDYWVSWVKQRHGESLEWIGEIYPNSGATNFNGKFRGKATLTVDNPTSTAYMELSRLTSEDSAIYYCTREYTRDWFAYWGQGTLVTVSS
VL: DVVLTQTPSILSATIGQSVSISCRSSQSLLDSDGNTYLYWFLQRPGQSPQRLIYLVSNLGSGVPNRFSGSGSGTDFTLKISGVEAEDLGIYYCMQPTHAPYTFGAGTKLELK
notes: Rat IgG1, kappa

EC50 [4]: 0.2 µg/mL
Maximal activation (OD655) [5]: 0.67 OD655
B6: huAb9-5 (antibody, human IgG1, kappa)
heavy: not shown
light: DAVMTQTPLSLSVTPGQPASISCRSSQSLENTNGNTFLNWYLQKPGQSPQLLIYRVSNRFSGVPDRFSGSGSGTDFTLKISRVEAEDVGVYYCLQVTHVPFTFGQGTKLEIKRTVAAPSVFIFPPSDEQLKSGTASVVCLLNNFYPREAKVQWKVDNALQSGNSQESVTEQDSKDSTYSLSSTLTLSKADYEKHKVYACEVTHQGLSSPVTKSFNRGEC
notes: human IgG1, kappa

EC50 [4]: 0.4 µg/mL
Maximal activation (OD655) [5]: 0.45 OD655
B8: huAb8-1 (antibody, human IgG1, V domains shown)
VH: EVQLVQSGAEVKKPGSSVKVSCKASGYTFTDYYINWVRQAPGQGLEWIGWIFPGSGSVYCNEQFKGRATLTVDRSTSTAYMELSSLRSEDTAVYFCASSLGKFAYWGQGTLVTVSS
VL: DIQMTQSPSSLSASVGDRVTITCKASQSVVTAVAWYQQKPGKSPKLLIYSASNRYTGVPSRFSGSGSGTDFTLTISSLQPEDFATYFCQQYSSYPYTFGGGTKVEIK

The remaining lines, values behind:

B4: CF1 (bispecific antibody, human IgG1, lambda)
heavy: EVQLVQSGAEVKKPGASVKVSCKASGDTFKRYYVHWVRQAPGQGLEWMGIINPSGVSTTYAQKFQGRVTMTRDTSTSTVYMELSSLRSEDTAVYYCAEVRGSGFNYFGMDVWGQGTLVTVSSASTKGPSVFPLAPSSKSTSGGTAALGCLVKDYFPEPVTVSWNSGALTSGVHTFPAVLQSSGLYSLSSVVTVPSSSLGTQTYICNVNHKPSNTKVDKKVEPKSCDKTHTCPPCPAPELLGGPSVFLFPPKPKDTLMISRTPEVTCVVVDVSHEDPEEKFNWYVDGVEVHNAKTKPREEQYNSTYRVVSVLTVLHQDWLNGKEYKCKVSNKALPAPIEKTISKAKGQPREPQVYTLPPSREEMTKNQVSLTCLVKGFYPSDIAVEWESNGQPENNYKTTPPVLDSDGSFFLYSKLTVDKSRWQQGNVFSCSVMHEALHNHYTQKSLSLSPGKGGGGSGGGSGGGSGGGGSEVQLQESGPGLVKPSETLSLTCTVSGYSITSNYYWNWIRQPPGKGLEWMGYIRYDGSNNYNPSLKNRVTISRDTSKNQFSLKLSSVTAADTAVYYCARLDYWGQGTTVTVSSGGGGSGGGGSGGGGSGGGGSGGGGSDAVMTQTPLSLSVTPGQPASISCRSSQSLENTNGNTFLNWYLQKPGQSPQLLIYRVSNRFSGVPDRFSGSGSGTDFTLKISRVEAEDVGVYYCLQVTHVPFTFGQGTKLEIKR
light: SYELTQPPSVSVSPGQTASITCSGDKLGDKYASWYQQKPGQSPVLVIYQDNRRPSGIPERFSGSNSGNTATLTISGTQAMDEADYYCQAWDSDTYVFGTGTKVTVLGQPKAAPSVTLFPPSSEELQANKATLVCLISDFYPGAVTVAWKADSSPVKAGVETTTPSKQSNNKYAASSYLSLTPEQWKSHRSYSCQVTHEGSTVEKTVAPTECS
Max. IL-12p70, dendritic cells [3]: 100 pg/mL

B5: CF3 (bispecific antibody, human IgG1, lambda)
heavy: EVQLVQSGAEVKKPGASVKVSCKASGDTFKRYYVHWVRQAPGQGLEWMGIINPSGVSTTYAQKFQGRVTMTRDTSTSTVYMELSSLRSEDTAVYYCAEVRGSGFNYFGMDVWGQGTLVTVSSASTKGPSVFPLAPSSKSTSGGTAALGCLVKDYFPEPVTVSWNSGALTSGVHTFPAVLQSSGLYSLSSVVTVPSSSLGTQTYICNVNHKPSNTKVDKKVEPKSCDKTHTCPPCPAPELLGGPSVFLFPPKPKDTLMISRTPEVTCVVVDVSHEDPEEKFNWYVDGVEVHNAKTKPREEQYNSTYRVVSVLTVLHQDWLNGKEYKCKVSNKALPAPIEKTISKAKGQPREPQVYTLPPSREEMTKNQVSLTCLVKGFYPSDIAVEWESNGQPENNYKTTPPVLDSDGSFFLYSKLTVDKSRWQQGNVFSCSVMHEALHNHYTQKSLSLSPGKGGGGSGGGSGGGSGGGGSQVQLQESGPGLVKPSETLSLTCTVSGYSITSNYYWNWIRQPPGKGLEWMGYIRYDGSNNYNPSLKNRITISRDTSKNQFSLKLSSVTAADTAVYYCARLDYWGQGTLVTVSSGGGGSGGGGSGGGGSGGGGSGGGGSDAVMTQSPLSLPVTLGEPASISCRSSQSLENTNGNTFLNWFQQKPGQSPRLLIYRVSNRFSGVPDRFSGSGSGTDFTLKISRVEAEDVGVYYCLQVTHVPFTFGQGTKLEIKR
light: SYELTQPPSVSVSPGQTASITCSGDKLGDKYASWYQQKPGQSPVLVIYQDNRRPSGIPERFSGSNSGNTATLTISGTQAMDEADYYCQAWDSDTYVFGTGTKVTVLGQPKAAPSVTLFPPSSEELQANKATLVCLISDFYPGAVTVAWKADSSPVKAGVETTTPSKQSNNKYAASSYLSLTPEQWKSHRSYSCQVTHEGSTVEKTVAPTECS
Max. IL-12p70, dendritic cells [3]: 75 pg/mL

B7: LB-1 (bispecific antibody, mouse IgG1)
chain: EVQLVESGGGLVQPGRSLKLSCAASGFTFSNYDMAWVRQAPTKGLEWVASISPSGGRTYYRDSVKGRFTVSRDNAKSTLYLQMDSLRSEDTATYYCARHDGSYFDYWGQGVMVTVSSDLSGGGGSGGGGSGGGGSGGGGSTGDTVLTQSPALAVSPGERVTISCRASESVSTLMHWYQQKPGQQPKLLIYLASHLESGVPARFSGSGSGTDFTLTIDPVEADDTATYYCQESWNDPWTFGGGTKLELKRLEVPRDSGSKPCICTVPEVSSVFIFPPKPKDVLTITLTPKVTCVVVDISKDDPEVQFSWFVDDVEVHTAQTQPREEQFNSTFRSVSELPIMHQDWLNGKEFKCRVNSAAFPAPIEKTISKTKGRPKAPQVYTIPPPKEQMAKDKVSLTCMITDFFPEDITVEWQWNGQPAENYKNTQPIMDTDGSYFVYSKLNVQKSNWEAGNTFTCSVLHEGLHNHHTEKSLSHSPGKVDGASSPVNVSSPSVQDIQVQLVQSGAEVKKPGASVKVSCKASGYTFTGNYINWVRQAPGQGLEWMGIINPTKGWTLYAQKFQGRVTMTRDTSISTAYMELSSLRSEDTAVYYCARWHHGTWIFDYWGQGTLVTVSSDLSGGGGSGGGGSGGGGSGGGGSTGDIVLTQPPSVSGAPGQRVTISCSGSSSNIGSNYVSWYQQLPGTAPKLLIYNDNQRPSGVPDRFSGSKSGTSASLAITGLQSEDEADYYCSTYDRRTFSVFGGGTKLTVLG
notes: 1C10 scFv (VH-VL), murine IgG1 hinge-CH2-CH3, MOR06626 scFv (VH-VL)
EC50 [1]: 1.39 µg/mL

B9: B39 (bispecific antibody, IgG2)
chain: EVQLQESGPGLVKPSETLSLTCTVSGYSITSNYYWNWIRQPPGKGLEWMGYIRYDGSNNYNPSLKNRVTISRDTSKNQFSLKLSSVTAADTAVYYCARLDYWGQGTTVTVSSDLSGGGGSGGGGSGGGGSGGGGSTGDAVMTQTPLSLSVTPGQPASISCRSSQSLENTNGNTFLNWYLQKPGQSPQLLIYRVSNRFSGVPDRFSGSGSGTDFTLKISRVEAEDVGVYYCLQVTHVPFTFGQGTKLEIKRVERKSSVECPPCPAPPVAGPSVFLFPPKPKDTLMISRTPEVTCVVVDVSHEDPEVQFNWYVDGVEVHNAKTKPREEQFNSTFRVVSVLTVVHQDWLNGKEYKCKVSNKGLPAPIEKTISKTKGQPREPQVYTLPPSREEMTKNQVSLTCLVKGFYPSDIAVEWESNGQPENNYKTTPPMLDSDGSFFLYSKLTVDKSRWQQGNVFSCSVMHEALHNHYTQKSLSLSPGKVDGASSPVNVSSPSVQDIEVQLVQSGAEVKKPGASVKVSCKASGDTFKRYYVHWVRQAPGQGLEWMGIINPSGVSTTYAQKFQGRVTMTRDTSTSTVYMELSSLRSEDTAVYYCAEVRGSGFNYFGMDVWGQGTLVTVSSDLSGGGGSGGGGSGGGGSGGGGSTGSYELTQPPSVSVSPGQTASITCSGDKLGDKYASWYQQKPGQSPVLVIYQDNRRPSGIPERFSGSNSGNTATLTISGTQAMDEADYYCQAWDSDTYVFGTGTKVTVLGQ
notes: huAb9-5 (VH-VL) N-terminal, HuAM15 (VH-VL) C-terminal, huIgG2
EC50 [4]: 0.5 µg/mL
